Reference: US20210403506A1 (XDCEXPLORER SHANGHAI, published 2021)
Square brackets hold non-standard residues; d marks the D form. Primed or numbered codes have the meaning given here. Ends that are not written are not given here. Bpa = N[C@@H](Cc1ccc(C(=O)c2ccccc2)cc1)C(=O)O; Pro(5R-Ph) = O=C(O)[C@@H]1CC[C@H](c2ccccc2)N1; dTyr(3-F) = N[C@H](Cc1ccc(O)c(F)c1)C(=O)O; Pro(diF)″ = difluoroproline (DiFluorPro); 1Nal = N[C@@H](Cc1cccc2ccccc12)C(=O)O; 2Nal = N[C@@H](Cc1ccc2ccccc2c1)C(=O)O; dNMeY = CN[C@H](Cc1ccc(O)cc1)C(=O)O; NMeF = CN[C@@H](Cc1ccccc1)C(=O)O; Tic = O=C(O)[C@@H]1Cc2ccccc2CN1; dTic = O=C(O)[C@H]1Cc2ccccc2CN1; NMeL = CN[C@@H](CC(C)C)C(=O)O; Pro(4Ph) = 4-phenylproline; NMeS = CN[C@@H](CO)C(=O)O; Thz = O=C(O)[C@@H]1CSCN1; dTi1c = not defined here; Aze = O=C(O)[C@@H]1CCN1

T1: human Chemokine like receptor 1 (human, UniProt Q99788 1-373)
T1 sequence (looked up): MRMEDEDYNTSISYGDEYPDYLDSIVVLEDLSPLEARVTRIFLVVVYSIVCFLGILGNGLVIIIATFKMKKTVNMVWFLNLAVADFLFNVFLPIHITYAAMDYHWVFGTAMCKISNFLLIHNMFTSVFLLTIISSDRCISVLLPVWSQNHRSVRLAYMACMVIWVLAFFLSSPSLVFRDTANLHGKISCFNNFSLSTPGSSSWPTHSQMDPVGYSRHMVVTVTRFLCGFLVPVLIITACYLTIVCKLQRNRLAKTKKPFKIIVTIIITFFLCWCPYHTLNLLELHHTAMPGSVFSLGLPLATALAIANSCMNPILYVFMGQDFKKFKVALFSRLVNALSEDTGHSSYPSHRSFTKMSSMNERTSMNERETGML

B1: YW-110 (peptide)
peptide: [dY]FLP[dS]QF[dA][Tic][NMeS]-OH
modifications: N-terminus assumed
SMILES: CC(C)C[C@H](NC(=O)[C@H](Cc1ccccc1)NC(=O)[C@H](N)Cc1ccc(O)cc1)C(=O)N1CCC[C@H]1C(=O)N[C@H](CO)C(=O)N[C@@H](CCC(N)=O)C(=O)N[C@@H](Cc1ccccc1)C(=O)N[C@H](C)C(=O)N1Cc2ccccc2C[C@H]1C(=O)N(C)[C@@H](CO)C(=O)O
B2: YW-226 (peptide)
peptide: [dTyr(3-F)]F[NMeL][Pro(diF)″][dS]Q[2Nal][dA][Tic][NMeS]-OH
B3: YW-114 (peptide)
peptide: [dY]FL[Thz][dS]QF[dA][Tic]S-OH
modifications: N-terminus assumed
SMILES: CC(C)C[C@H](NC(=O)[C@H](Cc1ccccc1)NC(=O)[C@H](N)Cc1ccc(O)cc1)C(=O)N1CSC[C@H]1C(=O)N[C@H](CO)C(=O)N[C@@H](CCC(N)=O)C(=O)N[C@@H](Cc1ccccc1)C(=O)N[C@H](C)C(=O)N1Cc2ccccc2C[C@H]1C(=O)N[C@@H](CO)C(=O)O
B4: YW-123 (peptide)
peptide: [dNMeY]F[NMeL][Thz][dS]QF[dA][Tic]S
B5: YW-151 (peptide)
peptide: [dY]FLP[dS]QF[dA][dTi1c]S-OH
modifications: reading uncertain; also: printed as (D-Tyr)-Phe-Leu-Pro-(D-Ser)-Gln-Phe-(D-Ala)-(D-Ti1c)-Ser
B6: YW-113 (peptide)
peptide: [dY]FL[Pro(4Ph)][dS]QF[dA][Tic]S-OH
B7: YW-112 (peptide)
peptide: [dY]FL[Pro(5R-Ph)][dS]QF[dA][Tic]S-OH
modifications: N-terminus assumed
SMILES: CC(C)C[C@H](NC(=O)[C@H](Cc1ccccc1)NC(=O)[C@H](N)Cc1ccc(O)cc1)C(=O)N1[C@@H](c2ccccc2)CC[C@H]1C(=O)N[C@H](CO)C(=O)N[C@@H](CCC(N)=O)C(=O)N[C@@H](Cc1ccccc1)C(=O)N[C@H](C)C(=O)N1Cc2ccccc2C[C@H]1C(=O)N[C@@H](CO)C(=O)O
B8: YW-103 (peptide)
peptide: [dNMeY]FLP[dS]QF[dA][Tic]S-OH
modifications: N-terminus assumed
SMILES: CN[C@H](Cc1ccc(O)cc1)C(=O)N[C@@H](Cc1ccccc1)C(=O)N[C@@H](CC(C)C)C(=O)N1CCC[C@H]1C(=O)N[C@H](CO)C(=O)N[C@@H](CCC(N)=O)C(=O)N[C@@H](Cc1ccccc1)C(=O)N[C@H](C)C(=O)N1Cc2ccccc2C[C@H]1C(=O)N[C@@H](CO)C(=O)O
B9: YW-117 (peptide)
peptide: [dY]FLP[dS]Q[1Nal][dA][Tic]S-OH
modifications: N-terminus assumed
SMILES: CC(C)C[C@H](NC(=O)[C@H](Cc1ccccc1)NC(=O)[C@H](N)Cc1ccc(O)cc1)C(=O)N1CCC[C@H]1C(=O)N[C@H](CO)C(=O)N[C@@H](CCC(N)=O)C(=O)N[C@@H](Cc1cccc2ccccc12)C(=O)N[C@H](C)C(=O)N1Cc2ccccc2C[C@H]1C(=O)N[C@@H](CO)C(=O)O
B10: YW-96 (peptide)
peptide: [dY]FL[S‑Pip][dS]QF[dA][Tic]S
B11: YW-122 (peptide)
peptide: [dY]F[NMeL][Thz][dS]Q[2Nal][dA][Tic]S-OH
B12: YW-149 (peptide)
peptide: [dY]FLP[dS]QF[dA][dTic]S-OH
modifications: N-terminus assumed
SMILES: CC(C)C[C@H](NC(=O)[C@H](Cc1ccccc1)NC(=O)[C@H](N)Cc1ccc(O)cc1)C(=O)N1CCC[C@H]1C(=O)N[C@H](CO)C(=O)N[C@@H](CCC(N)=O)C(=O)N[C@@H](Cc1ccccc1)C(=O)N[C@H](C)C(=O)N1Cc2ccccc2C[C@@H]1C(=O)N[C@@H](CO)C(=O)O
B13: YW-119 (peptide)
peptide: [dY]FLP[dS]Q[Bpa][dA][Tic]S-OH
modifications: N-terminus assumed
SMILES: CC(C)C[C@H](NC(=O)[C@H](Cc1ccccc1)NC(=O)[C@H](N)Cc1ccc(O)cc1)C(=O)N1CCC[C@H]1C(=O)N[C@H](CO)C(=O)N[C@@H](CCC(N)=O)C(=O)N[C@@H](Cc1ccc(C(=O)c2ccccc2)cc1)C(=O)N[C@H](C)C(=O)N1Cc2ccccc2C[C@H]1C(=O)N[C@@H](CO)C(=O)O
B14: YW-115 (peptide)
peptide: [dY]FL[Aze][dS]QF[dA][Tic]S-OH
modifications: N-terminus assumed
SMILES: CC(C)C[C@H](NC(=O)[C@H](Cc1ccccc1)NC(=O)[C@H](N)Cc1ccc(O)cc1)C(=O)N1CC[C@H]1C(=O)N[C@H](CO)C(=O)N[C@@H](CCC(N)=O)C(=O)N[C@@H](Cc1ccccc1)C(=O)N[C@H](C)C(=O)N1Cc2ccccc2C[C@H]1C(=O)N[C@@H](CO)C(=O)O
B15: YW-97 (peptide)
peptide: [dF]FLP[dS]QF[dA][Tic]S-OH
modifications: N-terminus assumed
SMILES: CC(C)C[C@H](NC(=O)[C@H](Cc1ccccc1)NC(=O)[C@H](N)Cc1ccccc1)C(=O)N1CCC[C@H]1C(=O)N[C@H](CO)C(=O)N[C@@H](CCC(N)=O)C(=O)N[C@@H](Cc1ccccc1)C(=O)N[C@H](C)C(=O)N1Cc2ccccc2C[C@H]1C(=O)N[C@@H](CO)C(=O)O
B16: YW-104 (peptide)
peptide: [dY][NMeF]LP[dS]QF[dA][Tic]S-OH
modifications: N-terminus assumed
SMILES: CC(C)C[C@H](NC(=O)[C@H](Cc1ccccc1)N(C)C(=O)[C@H](N)Cc1ccc(O)cc1)C(=O)N1CCC[C@H]1C(=O)N[C@H](CO)C(=O)N[C@@H](CCC(N)=O)C(=O)N[C@@H](Cc1ccccc1)C(=O)N[C@H](C)C(=O)N1Cc2ccccc2C[C@H]1C(=O)N[C@@H](CO)C(=O)O
B17: YW-118 (peptide)
peptide: [dY]FLP[dS]Q[2Nal][dA][Tic]S-OH
modifications: N-terminus assumed
SMILES: CC(C)C[C@H](NC(=O)[C@H](Cc1ccccc1)NC(=O)[C@H](N)Cc1ccc(O)cc1)C(=O)N1CCC[C@H]1C(=O)N[C@H](CO)C(=O)N[C@@H](CCC(N)=O)C(=O)N[C@@H](Cc1ccc2ccccc2c1)C(=O)N[C@H](C)C(=O)N1Cc2ccccc2C[C@H]1C(=O)N[C@@H](CO)C(=O)O
B18: YW-150 (peptide)
peptide: [dY]FLP[dS]QF[dA][Ti1c]S-OH

Target: T1, human Chemokine like receptor 1
Experiment: cell-based or functional assay

Row | Binder | EC50 (µM), activation of Tango CMKLR1-bla U2OS cells
1 | B1 | 0.013 µM
2 | B2 | 0.0033 µM
3 | B3 | 0.005 µM
4 | B4 | 0.001 µM
5 | B5 | 0.027 µM
6 | B6 | 0.0086 µM
7 | B7 | 0.17 µM
8 | B8 | 0.0094 µM
9 | B9 | 0.0039 µM
10 | B10 | 0.039 µM
11 | B11 | 0.0006 µM
12 | B12 | 0.021 µM
13 | B13 | 0.0099 µM
14 | B14 | 0.19 µM
15 | B15 | 0.05 µM
16 | B16 | 0.08 µM
17 | B17 | 0.0069 µM
18 | B18 | 0.062 µM
